The results in this text go back to patent US20230025707A1 (University of Pennsylvania, published 2023).

Positions count from the first letter of the chain named.

The target of experiment [1] is T1, human α-Synuclein pre-formed fibrils (human, UniProt P37840 1-140). Nature of the experiment: cell-based or functional assay.
For a further experiment, the target named is Lewy body α-Synuclein (human, UniProt P37840 1-140). Nature of the experiment: IHC, human amygdala; OD of Lewy bodies / OD of tissue.
Experiment [2] deals with T1, human α-Synuclein pre-formed fibrils. Nature of the experiment: sandwich ELISA; PFF vs monomer from EC50s, Syn211 as control. Background: ELISA stands for enzyme-linked immunosorbent assay.
Description: Fibrils were then sonicated on high for 10 cycles of 30 seconds on, 30 seconds off (Diagenode Biorupter UCD-300 bath sonicator) prior to dilutions. Dilutions were added to each well (30 μL per well) and incubated overnight at 4° C. The plate was washed 4 times with PBST. 30 μL of MJF-R1 (1:3,000, Abcam Cat #ab138501) in Buffer C was added to each well and the plate was incubated for 4 hours at 37° C. After washing with PBST 4 times, 1:10 k diluted goat-anti-rabbit IgG-HRP conjugate (Cell Signaling Technology) was added to the plate and the plate was incubated for 1 hour at 37° C.
This assay retains the conformation of α-Synuclein by allowing binding of α-Synuclein that is in solution to immobilized antibody, and allows a broad range of affinity detection. Antibodies of interest were coated on an ELISA plate and either α-Synuclein monomer or PFF were incubated with the antibodies at increasing α-Synuclein concentrations to determine relative affinity of the antibodies for each form of α-Synuclein.
By fitting the absorbance values with a sigmoid dose curve, EC₅₀ values were calculated for each antibody.

Excerpt for Lewy body α-Synuclein: FIG. 2A: Sections of amygdala tissue containing abundant Lewy body pathology were stained using undiluted or 1:3 diluted hybridoma supernatant. […] FIG. 2B: The optical density within Lewy bodies divided by the optical density of a 1 mm² tissue section containing those Lewy bodies was defined as the Lewy Body Discrimination Index. Antibodies preferentially recognizing Lewy bodies score high on this measure.
In order to rapidly screen for antibody selectivity to pathological α-Synuclein, amygdala sections from PD patients with abundant LB pathology were immunostained. Hybridoma supernatants were used undiluted or at a 1:3 dilution on screening slides processed in parallel to allow direct comparison of immunostaining. […] A value of 1 indicates no discrimination of LBs over normal synaptic neuropil staining.

B1: 9060 (antibody, IgG1, V domains shown)
VH: EVHLVESGGGLVQPKGSLKLSCAASGFTFNTYAMHWVRQAPGKGLEWVARIRNKSNNYATYYADSVKDRFTISRDDSQSMLFLQMDNLKTEDTAIYYCVRGGLSPFDYWGQGTTLTVSS
VL: QIVLTQSPAIMSASPGEKVTMTCSASSSVTYMHWYQQKSGTSPKRWIYDTSKLASGVPARFSGSGSGTSYSLTISSMEAEDAATYYCQQWSSNPPTFGGGTKLEIR
For the molecule B1, the “% Inhibition (primary neuron assay)” value in experiment [1] was 83.8%. The “LB Discrimination Index” value with Lewy body α-Synuclein was 1.92. Besides, the “PFF Preference” value in experiment [2] came out at 0.73.

B2: 9110 (antibody, IgG1, V domains shown)
VH: B1 VH
VL: B1 VL
For the molecule B2, the “% Inhibition (primary neuron assay)” value in experiment [1] was 81.6%. In the experiment with Lewy body α-Synuclein, the “LB Discrimination Index” value was determined as 1.73. Besides, the “PFF Preference” value in experiment [2] is 0.533.

B3: 9064 (antibody, IgG1, V domains shown)
VH: B1 VH
VL: B1 VL
Take B3: in experiment [1], the “% Inhibition (primary neuron assay)” value turned out to be 88.1%. The “LB Discrimination Index” value with Lewy body α-Synuclein worked out at 1.95. In experiment [2], the “PFF Preference” value was 0.855.

B4: 9071 (antibody, IgG1, V domains shown)
VH: B1 VH
VL: B1 VL
In the case of B4, the “% Inhibition (primary neuron assay)” value in experiment [1] amounted to 79.3%. Besides, in the experiment with Lewy body α-Synuclein, the “LB Discrimination Index” value is 1.89. The “PFF Preference” value in experiment [2] amounted to 0.605.

B5: 9003 (antibody, IgG1, V domains shown)
VH: B1 VH with H3Q, N53S, K54E, Y58F, R69S, F82Y, D86N, I95V
VL: B1 VL with T30S, S75N, S92R, R106K
With B5, the “% Inhibition (primary neuron assay)” value in experiment [1] was 82%. Also, the “LB Discrimination Index” value with Lewy body α-Synuclein came to 1.94. Further, the “PFF Preference” value in experiment [2] is 0.565.

B6: 9009 (antibody, IgG1, V domains shown)
VH: B1 VH with H3Q, N53S, K54E, Y58F, R69S, F82Y, D86N, I95V
VL: B1 VL with T30S, S75N, S92R, R106K
Consider B6, for which, in experiment [1], the “% Inhibition (primary neuron assay)” value was found to be 81%. Also, the “LB Discrimination Index” value with Lewy body α-Synuclein was 1.82. In addition, the “PFF Preference” value in experiment [2] amounted to 0.507.

B7: 9014 (antibody, IgG1, V domains shown)
VH: B1 VH with H3Q, N53S, K54E, Y58F, R69S, F82Y, D86N, I95V
VL: B1 VL with T30S, S75N, S92R, R106K
Regarding B7, the “% Inhibition (primary neuron assay)” value in experiment [1] amounted to 81.7%. For the same molecule, the “LB Discrimination Index” value with Lewy body α-Synuclein stood at 1.87. In addition, the “PFF Preference” value in experiment [2] came out at 0.478.

B8: 9004 (antibody, IgG2b, V domains shown)
VH: B1 VH with N53S, F82Y, D86N, I95M
VL: B1 VL
With B8, in experiment [1], the “% Inhibition (primary neuron assay)” value was found to be 62.7%. Also, in the experiment with Lewy body α-Synuclein, the “LB Discrimination Index” value is 1.91. Besides, in experiment [2], the “PFF Preference” value turned out to be 1.02.

B9: 9047 (antibody, IgG2b, V domains shown)
VH: EVQLVESGGGLVKPGGSLKLSCGASGFTFSSFAMSWVRQTPEKRLEWVATISNGGSYTYYPDSVKGRFTISRDNAKNTLYLRMSSLRSEDTALYYCTRRSSTRGFFDYWGPGTTLTVSS
VL: QIFLTQSPAIMSASPGEKVTMTCSASSSVTYMYWYQQNPGSSPRLLIYDSSKLASGVPVRFSGSGSGTSYSLTISRMEAEDATTYYCQQWKSYPPTFGTGTKLDLK
In the case of B9, the “% Inhibition (primary neuron assay)” value in experiment [1] came out at 84.3%. In addition, the “LB Discrimination Index” value with Lewy body α-Synuclein stood at 2.46. The “PFF Preference” value in experiment [2] amounted to 133.

B10: 9092 (antibody, IgG1, V domains shown)
VH: QVQLQQSGPELVKPGASVRISCKASGYTFTTFYLHWVKQRPGQGLEWIGWIYPVNVKIKYSERFKGKATLTADKSSSTAYMQLGSLTSEDSAVYFCVRGGRGLDYWGQGTTLTVSS
VL: NIMMTQSPSSLAVSAGEKVTMSCKSSQSVLYSSNQKNYLAWYQQKPGQSPKMLIYWASFRESGVPDRFTGSGSGTDFTLTISSVQAEDLAVYYCHQYLSLFTFGSGTKLEIK
Consider B10, for which, in experiment [1], the “% Inhibition (primary neuron assay)” value was -27.9%. Also, the “LB Discrimination Index” value in the experiment with Lewy body α-Synuclein was found to be 1.9. Also, the “PFF Preference” value in experiment [2] is 93.8.

B11: 9005 (antibody, IgG1, V domains shown)
VH: EVMLVESGGGLVKSGGSLKLSCAASGFTFSSYAMSWVRQTPEKRLEWVATISTGGGYTYYPDSVKGRFTISRDNAKNTLYLQMSSLRSEDTAMYYCVRRGTARGYFDVWGAGTTVTVSS
VL: QIVLTQSPAIMSASPGEKVTMTCSASSSVSYMYWYQQKPESSPRLLIYDTSNLASGVPVRFSGSGSGTSYFLTISRMEAEDAATYYCQQWKTYPPTFGGGTKLEIK
B11: the “% Inhibition (primary neuron assay)” value in experiment [1] was 90.3%. Besides, the “LB Discrimination Index” value in the experiment with Lewy body α-Synuclein was 1.68. The “PFF Preference” value in experiment [2] worked out at 1.31.

B12: 9099 (antibody, IgG2b, V domains shown)
VH: B9 VH with G10V, G23A, L93M, T97V, S100A, S101T, F105Y, P111Q
VL: B9 VL with T30S, N38K, R60Q, T83A, K91R, T99A, D104E
With B12, the “% Inhibition (primary neuron assay)” value in experiment [1] was found to be 85.3%. For the same molecule, in the experiment with Lewy body α-Synuclein, the “LB Discrimination Index” value turned out to be 1.47. Moreover, the “PFF Preference” value in experiment [2] was 5.26.

B13: 9100 (antibody, IgG2b, V domains shown)
VH: B9 VH with G10V, G23A, L93M, T97V, S100A, S101T, F105Y, P111Q
VL: B9 VL with T30S, N38K, R60Q, T83A, K91R, T99A, D104E
For the molecule B13, the “% Inhibition (primary neuron assay)” value in experiment [1] stood at 91.3%. Further, the “LB Discrimination Index” value with Lewy body α-Synuclein stood at 1.62. The “PFF Preference” value in experiment [2] worked out at 2.73.

B14: 9052 (antibody, IgG2b, V domains shown)
VH: B9 VH with G10V, G23A, L93M, T97V, S100A, S101T, F105Y, P111Q
VL: B9 VL with T30S, N38K, R60Q, T83A, K91R, T99A, D104E
In the case of B14, in experiment [1], the “% Inhibition (primary neuron assay)” value is 84.3%. Also, the “LB Discrimination Index” value in the experiment with Lewy body α-Synuclein turned out to be 1.74. Further, in experiment [2], the “PFF Preference” value worked out at 1.47.

B15: 9035 (antibody, IgG2b, V domains shown)
VH: B9 VH with K65Q, L93M, T97A, P111H
VL: B9 VL with T30S, N38K, R60Q, T83A, K91R, T99A, D104E
With B15, in experiment [1], the “% Inhibition (primary neuron assay)” value came to 79%. Further, in the experiment with Lewy body α-Synuclein, the “LB Discrimination Index” value is 1.9. Moreover, the “PFF Preference” value in experiment [2] was determined as 2.11e+08.

B16: 9018 (antibody, IgG2b, V domains shown)
VH: B11 VH with S14P, I70V, V97A, A102S
VL: B11 VL with V3I, K102R
Regarding B16, the “% Inhibition (primary neuron assay)” value in experiment [1] was found to be 86.5%. The “LB Discrimination Index” value in the experiment with Lewy body α-Synuclein was 1.78. Moreover, the “PFF Preference” value in experiment [2] turned out to be 1.45.

B17: 9021 (antibody, IgG1, V domains shown)
VH: B11 VH with L4M, S14P, S31N, V64M, V97A
VL: B11 VL
For the molecule B17, in experiment [1], the “% Inhibition (primary neuron assay)” value came to 84.7%. Besides, in the experiment with Lewy body α-Synuclein, the “LB Discrimination Index” value was found to be 1.81. Besides, in experiment [2], the “PFF Preference” value turned out to be 1.

B18: 9096 (antibody, IgG2b, V domains shown)
VH: B9 VH with G23A, S31G, F32Y, N77K, R82Q, L93M, S100A, S101A, F105Y, P111Q
VL: B11 VL with E40G, N52K, F71S, K91R, T92S, G99A, I105L
For B18, the “% Inhibition (primary neuron assay)” value in experiment [1] is 85.1%. Moreover, the “LB Discrimination Index” value with Lewy body α-Synuclein is 1.3. Moreover, the “PFF Preference” value in experiment [2] turned out to be 1.01.
